Article PMC11983205

Target: CD33 (UniProt P20138 18-259)
Test: LOCK displacement, CHA/Cas12a fluorescence

Chain of CD33 (P20138 18-259): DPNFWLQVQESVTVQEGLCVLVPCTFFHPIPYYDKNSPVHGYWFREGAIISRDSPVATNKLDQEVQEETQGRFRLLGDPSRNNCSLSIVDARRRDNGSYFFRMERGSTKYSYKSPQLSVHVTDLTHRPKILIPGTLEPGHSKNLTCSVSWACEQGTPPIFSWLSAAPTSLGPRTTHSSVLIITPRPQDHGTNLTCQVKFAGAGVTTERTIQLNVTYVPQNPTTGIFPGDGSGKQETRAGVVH

B1: CD33 YES gate DNA1/LOCK (mixed)
DNA 1: TAGCTTATCAGACTGATGTTGATACCAGTGCGATGCTCAGCACGCTTATAGGGGCTGGACAAAATTCTACCCAGCCTTTTCTGACGCATTCGGTTGAC
DNA 2: CACTGGTATCAACATCAGTC
  binding result: binds
